Measured values as given in patent US20230212549A1 (3B PHARMACEUTICALS, published 2023).
“And” between values parts separate entries of the source, which are not always exact repeats. Identical values can stand only once. Numbered stars: 1 amine (or outer) side, 2 acyl side, 3 side chain; on linkers, the order of the positions; unused ones are H or OH. Bridge positions count the residues as written; N and C are the ends. Square brackets hold non-standard residues; d marks the D form. Primed or numbered codes have the meaning given here. * marks the point of attachment. tMeBn(DOTA-AET) = 1,3,5-trimethylbenzylidene (from 1,3,5-tris(bromomethyl)benzene), two thioethers to Cys, third CH2 bears 2-aminoethanethiol via S, its amine acylated by DOTA; Ttds″ = 1,13-diamino-4,7,10-trioxatridecan-succinamic acid spacer, O=C(CCC(=O)[*:2])NCCCOCCOCCOCCCN[*:1]; Efa = N-[2-(2-amino-ethanesulfonyl)-ethyl]-succinamic acid, O=C(CCC(=O)[*:2])NCCS(=O)(=O)CCN[*:1]; Ttds = 1,13-diamino-4,7,10-trioxatridecan-succinamic acid, O=C(CCC(=O)[*:2])NCCCOCCOCCOCCCN[*:1]; 3MeBn = 3-Methylbenzylidene (m-xylylene thioether bridge from α,α′-dibromo-m-xylene); Opc = (S)-N-(pyrazinylcarbonyl)-ornithine, O=C(NCCC[C@H](N[*:1])C(=O)[*:2])c1cnccn1; N4Ac = 6-Carboxy-1,4,8,11-tetraazaundecane, an N4-chelator, NCCNCC(CNCCN)C(=O)*; 3MeBn(3) = 3-methylbenzylidene (m-xylylene), from α,α′-dibromo-m-xylene; DOTA = O=C(O)CN1CCN(CC(=O)O)CCN(CC(=O)*)CCN(CC(=O)O)CC1; Pro(trans-4-Ph) = O=C(O)[C@@H]1C[C@@H](c2ccccc2)CN1; γGlu = O=C(O)[C@H](CCC(=O)[*:2])N[*:1]; mXylylene = c1cc(C[*:1])cc(C[*:2])c1; Tic = O=C(O)[C@@H]1Cc2ccccc2CN1; Nle = CCCC[C@H](N)C(=O)O; Orn = NCCC[C@H](N)C(=O)O; PEG6′ = not defined here; Hexanoyl = CCCCCC(=O)*

Key:
[1] = biological target: Recombinant human FAP (R&D systems, #3715-SE) (human, UniProt Q12884 26-760); assay: cell-based or functional assay
[2] = biological target: T1, fibroblast activation protein (FAP) on FAP-expressing human WI-38 fibroblasts (human, UniProt Q12884 1-760); assay: competitive FACS, WI-38 cells, vs Cy5 tracer m3; D = pIC50 <=6.0
T1 construct: also called human FAP

[3] = biological target: T2, Recombinant human FAP (R&D systems, #3715-SE) (human, UniProt Q12884 26-760); assay: SPR (Biacore T200), FAP captured on anti-FAP antibody, single cycle kinetics
T2 construct: bought; in SPR captured on immobilized anti-FAP antibody MAB3715; also called rhFAP; human recombinant FAP

[4] = biological target: T3, human fibroblast activation protein (FAP) on WI-38 fibroblasts (human, UniProt Q12884 1-760); assay: competitive FACS, WI-38 cells, Cy5-labeled peptide as competitor; B = pIC50 7.1 to 8.0
T3 construct: FAP-expressing human WI-38 fibroblasts (ECACC)

[5] = biological target: T2, Recombinant human FAP (R&D systems, …); assay: cell-based or functional assay; remark: listed apart in the source
[6] = biological target: T4, human fibroblast activating protein (FAP) on WI-38 fibroblasts (human, UniProt Q12884 1-760); assay: competitive FACS on WI-38 cells vs 3 nM Cy5-labeled peptide; pIC50 category B = 7.1-8.0
T4 construct: FAP-expressing human WI-38 fibroblasts (ECACC)

Binder | pIC50 Category (Activity) [1] | pIC50 Category (FACS) [2] [pIC50] | pIC50 [4] [pic50] | other results
Hexanoyl-CPP[Orn](Ac)EFC-NH2 (linker 1-7 via mXylylene; SMILES CCCCCC(=O)N[C@H]1CSCc2cccc(c2)CSC[C@@H](C(N)=O)NC(=O)[C@H](Cc2ccccc2)NC(=O)[C@H](CCC(=O)O)NC(=O)[C@H](CCCNC(C)=O)NC(=O)[C@@H]2CCCN2C(=O)[C@@H]2CCCN2C1=O, also called 3BP-3372) [Hex-[Cys(3MeBn)-Pro-Pro-Orn(Ac)-Glu-Phe-Cys]-NH2] | 6.1 pIC50 and 7 pIC50 | ≤ 6 | – | –
N4Ac-E[Ttds″][Nle]CPPTEFC-OH (linker 4-10 via 3MeBn; not fully specified (residue 1); printed as N4Ac--E(AGLU)--Ttds--Nle--[C(3MeBn)-PPTEFC]-OH, also called 3BP-4249) [N4Ac-Glu(AGLU′)-Ttds-Nle-[Cys-(3MeBn)-Pro-Pro-Thr-Glu-Phe-Cys]-OH] | – | – | 7.1 to 8 | pKD Category [3]: > 8 pKD
N4Ac-[Efa][Nle]CPPTEFC-OH (linker 3-9 via 3MeBn(3), also called 3BP-4243) [N4Ac-Efa-Nle-[Cys-(3MeBn)-Pro-Pro-Thr-Glu-Phe-Cys]-OH] | – | – | 7.1 to 8 | –
{DOTA}-[Ttds][Nle]CPPTQFCD[Ttds]K(DOTA)-NH2 (linker 3-9 via tMeBn(DOTA-AET), also called 3BP-4392) [DOTA-Ttds-Nle-[Cys(tMeBn(DOTA-AET))-Pro-Pro-Thr-Gln-Phe-Cys]-Asp-Ttds-Lys(DOTA)-NH2] | – | – | 7.1 to 8 | –
Hexanoyl-CPPTQFCD-NH2 (linker 1-7 via tMeBn(H-AET), also called 3BP-3981) [Hex-[Cys-(tMeBn(H-AET))-Pro-Pro-Thr-Gln-Phe-Cys]-Asp-NH2] | – | – | 7.1 to 8 | pIC50 Category (Activity) [5]: > 8 pIC50
N4Ac-[γGlu][Ttds″][Nle]CPPTEFC-OH (linker 4-10 via mXylylene; SMILES CCCC[C@H](NC(=O)CCC(=O)NCCCOCCOCCOCCCNC(=O)CC[C@H](NC(=O)C(CNCCN)CNCCN)C(=O)O)C(=O)N[C@H]1CSCc2cccc(c2)CSC[C@@H](C(=O)O)NC(=O)[C@H](Cc2ccccc2)NC(=O)[C@H](CCC(=O)O)NC(=O)[C@H]([C@@H](C)O)NC(=O)[C@@H]2CCCN2C(=O)[C@@H]2CCCN2C1=O, also called 3BP-4247) [N4Ac-gGlu-Ttds-Nle-[Cys-(3MeBn)-Pro-Pro-Thr-Glu-Phe-Cys]-OH] | – | – | 7.1 to 8 | –
Hexanoyl-CPPTEFC-OH (linker 1-7 via tMeBn(GaNOPO-AET); also: gallium-NOPO chelator-AET arm on the linker, also called 3BP-4816) [Hex-[C(tMeBn(GaNOPO-AET))-PPTEFC]-OH] | – | – | – | pIC50 [6]: 7.1 to 8 pic50
CPPTEFC (N-term Hex-; Cys1 and Cys7 thioether-bridged by tMeBn(NODAGA-AET); C-term -OH, also called 3BP-4695) [Hex-[C(tMeBn(NODAGA-AET))-PPTEFC]-OH] | – | – | – | pIC50 [6]: 7.1 to 8 pic50
Hexanoyl-CPPTEFC-OH (linker 1-7 via tMeBn(NOPO-AET), also called 3BP-4818) [Hex-[C(tMeBn(NOPO-AET))-PPTEFC]-OH] | – | – | – | pIC50 [6]: 7.1 to 8 pic50
Hexanoyl-CPP[Opc]EFC-NH2 (linker 1-7 via mXylylene; SMILES CCCCCC(=O)N[C@H]1CSCc2cccc(c2)CSC[C@@H](C(N)=O)NC(=O)[C@H](Cc2ccccc2)NC(=O)[C@H](CCC(=O)O)NC(=O)[C@H](CCCNC(=O)c2cnccn2)NC(=O)[C@@H]2CCCN2C(=O)[C@@H]2CCCN2C1=O, also called 3BP-3355) [Hex-[Cys(3MeBn)-Pro-Pro-Opc-Glu-Phe-Cys]-NH2] | 6.1 pIC50 and 7 pIC50 | ≤ 6 | – | –
Hexanoyl-CP[Pro(trans-4-Ph)]TEFC-NH2 (linker 1-7 via mXylylene; SMILES CCCCCC(=O)N[C@H]1CSCc2cccc(c2)CSC[C@@H](C(N)=O)NC(=O)[C@H](Cc2ccccc2)NC(=O)[C@H](CCC(=O)O)NC(=O)[C@H]([C@@H](C)O)NC(=O)[C@@H]2C[C@@H](c3ccccc3)CN2C(=O)[C@@H]2CCCN2C1=O, also called 3BP-3353) [Hex-[Cys(3MeBn)-Pro-Eay-Thr-Glu-Phe-Cys]-NH2] | 6.1 pIC50 and 7 pIC50 | ≤ 6 | – | –
N4Ac-[PEG6′][Nle]CPPTEFC-OH (linker 3-9 via 3MeBn, also called 3BP-4221) [N4Ac-PEG6-Nle-[Cys-(3MeBn)-Pro-Pro-Thr-Glu-Phe-Cys]-OH] | – | – | 7.1 to 8 | pKD Category [3]: > 8 pKD
Hexanoyl-CPPTE[Tic]C-NH2 (linker 1-7 via mXylylene; SMILES CCCCCC(=O)N[C@H]1CSCc2cccc(c2)CSC[C@@H](C(N)=O)NC(=O)[C@@H]2Cc3ccccc3CN2C(=O)[C@H](CCC(=O)O)NC(=O)[C@H]([C@@H](C)O)NC(=O)[C@@H]2CCCN2C(=O)[C@@H]2CCCN2C1=O, also called 3BP-3359) [Hex-[Cys(3MeBn)-Pro-Pro-Thr-Glu-Tic-Cys]-NH2] | 6.1 pIC50 and 7 pIC50 | ≤ 6 | – | –
